Reference: patent publication US20120201826A1 (NOV IMMUNE S A, published 2012)
Positions count from the first letter of the chain named.

What was measured:
[1] = biological target: T1, recombinant human RANTES (huRANTES, Peprotech) (human, UniProt P13501 24-91); test: cell-based or functional assay
T1 sequence: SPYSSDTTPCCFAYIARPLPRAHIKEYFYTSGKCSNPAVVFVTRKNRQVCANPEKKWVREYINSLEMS

[2] = biological target: T2, native human RANTES produced by THP1 cells (human, UniProt P13501 24-91); test: cell-based or functional assay
T2 sequence: T1 sequence

[3] = biological target: T1, recombinant human RANTES (huRANTES, …); test: cell-based or functional assay; remark: listed apart in the source
[4] = biological target: T1, recombinant human RANTES (huRANTES, …); test: cell-based or functional assay; remark: listed apart in the source
[5] = biological target: T2, native human RANTES produced by THP1 …; test: cell-based or functional assay; remark: listed apart in the source
[6] = biological target: T3, rat RANTES, expressed as fusion protein (ELISA panel) (rat, UniProt P30882 24-91 (mouse entry), Biotinylated in vivo at the AviTag, which is not in the letters); test: ELISA, chemokine coated at 5 ug/ml, concentration range of 1E4
T3 construct: not shown: NusA fusion partner with Factor X site, and the C-terminal AviTag

[7] = biological target: T1, recombinant human RANTES (huRANTES, …); test: SPR (Biacore 2000), 1E4 captured on anti-human IgG, chemokine as analyte, 25 C, 1:1 Langmuir fit
Procedure: (§1) 433 RU (response unit) of a donkey anti-human IgG polyclonal antibody were immobilized by EDC/NHS chemistry on a C1 Biacore chip. […] The surface was regenerated after each cycle by injection of 10 mM glycine pH=2 at 30 μL/min, for 60s followed by 1 min. of stabilization time in HBS-EP buffer.
(§2) All proteins were diluted in the running buffer HBS-EP buffer (Biacore AB, Uppsala, Sweden). Injection was performed at 75 μl/min for 3 min. followed by 15 min. of dissociation time and the temperature was set at 25° C.

[8] = biological target: T4, NusA-huRANTES fusion protein (human, UniProt P13501 24-91, biotinylated in vivo at the AviTag); test: as above
T4 construct: GenBank M21121 is printed for the human RANTES gene; also called NusA-Rantes; not shown: NusA fusion partner of expression plasmid pET43 (Novagen); Factor X protease cleavage site at the C-terminus of NusA; AviTag biotinylation site at the C-terminus of the chemokine
T4 sequence: T1 sequence
Procedure: as §1, §2

[9] = biological target: T5, NusA-cynoRANTES fusion protein (cynomolgus monkey, UniProt Q8HYQ1 24-91 (rhesus entry), biotinylated in vivo at the AviTag); test: as above
T5 construct: also called cynomolgus RANTES; not shown: NusA fusion partner of expression plasmid pET43 (Novagen); Factor X protease cleavage site at the C-terminus of NusA; AviTag biotinylation site at the C-terminus of the chemokine
T5 sequence: T1 sequence with Y3H, S4A
Procedure: as §1, §2

moIP-10 = biological target: T6, moIP-10 (mouse, UniProt P17515); test: ELISA: chemokine fusion protein coated at 5 µg/ml, titration of 1E4, anti-human Fc-gamma-HRP and fluorescent substrate
T6 construct: coated protein of the ELISA panel; also called mouse IP-10
T6 sequence (chemokine, looked up): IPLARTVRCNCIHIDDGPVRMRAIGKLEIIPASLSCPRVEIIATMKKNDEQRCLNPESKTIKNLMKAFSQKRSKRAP

ratIP-10 = biological target: T7, ratIP-10 (rat, UniProt P48973); test: as above
T7 construct: coated protein of the ELISA panel
T7 sequence (chemokine, looked up): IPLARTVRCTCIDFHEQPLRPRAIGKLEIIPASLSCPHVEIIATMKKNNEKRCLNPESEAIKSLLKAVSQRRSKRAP

[10] = biological target: T4, NusA-huRANTES fusion protein; test: as above
[11] = biological target: T5, NusA-cynoRANTES fusion protein; test: as above
[12] = biological target: T8, mouse RANTES, expressed as fusion protein (ELISA panel) (mouse, UniProt P30882 24-91, Biotinylated in vivo at the AviTag, which is not in the letters); test: as above
T8 construct: not shown: NusA fusion partner with Factor X site, and the C-terminal AviTag

[13] = biological target: T9, mouse RANTES, biotinylated in vivo (Example 14) (mouse, UniProt P30882 24-91, biotinylated in vivo at the AviTag); test: ELISA: biotinylated chemokine captured on Streptawell plate, 1E4 at 1 µg/ml, goat anti-human IgG Fc-gamma-HRP, TMB, OD450
T9 construct: Captured on streptavidin plates; not shown: AviTag biotinylation site at the C-terminus
Procedure: Three mutants of mouse RANTES were generated by site directed mutagenesis in order to introduce the human residues at those positions: [S16A/L17R/A18P]; [S32G/L37P] and [Q59R/Y64S]. […] These variant of mouse RANTES were captured in streptavidin coated plates (Streptawell, Roche). […] The plate was washed and incubated with a goat anti-human IgG Fcγ-specific antibody coupled to horse radish peroxidase (Jackson). […] The plates were read at 450 nm.

T8 sequence (P30882 24-91 limits assumed): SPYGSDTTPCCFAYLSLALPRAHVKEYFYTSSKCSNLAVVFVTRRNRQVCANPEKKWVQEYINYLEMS
T9 sequence (P30882 24-91): as the sequence (P30882 24-91 limits assumed) above
T3 sequence (P30882 24-91 limits assumed): as above

B1: 1E4 antibody, IgG1 format (antibody, V domains shown)
VH: QVQLVQSGAEVKKPGASVKVSCKVSGYTLTEFAMHWVRQAPGKGLEWMGGFVPEDGETIYAQKFQGRVTMTEDTSTDTAYMELSSLRSEDTAVYYCATDPLYEGSFSVWGQGTTVTVSS
VL: SYVLTQPPSVSVAPGQTARITCGGNNIESKSVHWYQQKPGQAPVLVVYDDSDRPSGIPERFSGSNSGNTATLTISRVEAGDEADYYCQVWDSNTDHWVFGGGTKLTVLG
notes: also called antibody 1E4 purified from CHO supernatant
Q: How did the “Chemotaxis IC50 (nM), 0.2 nM huRANTES; L1.2-hCCR5 cells; IgG1 format” value [1] turn out when B1 was run?
A: 0.034 nM

Q: What about the “Chemotaxis IC50 (nM), 1 nM huRANTES; L1.2-hCCR5 cells; IgG1 format” value [1] of the same binder?
A: 0.46 nM

Q: And the “Chemotaxis IC50 (nM), native huRANTES from THP1 cells; L1.2-hCCR5 cells; IgG1 format” value [2]?
A: 0.028 nM

Q: And the “Calcium flux IC50 (nM); L1.2-hCCR1; 25 nM huRANTES” value [3]?
A: 4.9 nM

Q: What about the “Calcium flux IC50 (nM); L1.2-hCCR3; 25 nM huRANTES” value [3] of the same binder?
A: 4.46 nM

Q: What about the “Calcium flux IC50 (nM); L1.2-hCCR5; 4 nM huRANTES” value [3] of the same binder?
A: 0.54 nM

Q: What about the “Chemotaxis IC50 (nM); L1.2-hCCR1; 2 nM huRANTES” value [4] of the same binder?
A: 0.46 nM

Q: And the “Chemotaxis IC50 (nM); L1.2-hCCR3; 10 nM huRANTES” value [4]?
A: 3.33 nM

Q: And the “Chemotaxis IC50 (nM); L1.2-hCCR5; 1 nM huRANTES” value [4]?
A: 0.2 nM

Q: What about the “Chemotaxis IC50 (nM); L1.2-hCCR5; 1 nM native huRANTES” value [5] of the same binder?
A: 0.09 nM

Q: Does B1 bind [6]?
A: no binding

Q: What about the Kd [7] of the same binder?
A: 455 pM

Q: And the Kd [8]?
A: 447 pM

Q: And the Kd [9]?
A: 2240 pM

Q: Does B1 bind (moIP-10)?
A: no binding (tested: about 3 µg/ml)

Q: Does B1 bind (ratIP-10)?
A: no binding (tested: about 3 µg/ml)

Q: And the “EC50 (read off the curve)” value [10]?
A: ~0.01 µg/mL

Q: And the “EC50 (read off the curve)” value [11]?
A: ~0.01 µg/mL

Q: Does B1 bind [12]?
A: no binding (tested: about 3 µg/ml)

Q: Does B1 bind [13]?
A: no binding (tested: 1 µg/ml)
